Patent US20020137087, “2'-fluoropyrimidine anti-calf intestinal phosphatase nucleic acid ligands” (published 2002)
Residue numbers refer to the chain shown, from its start.

Experiments:
[1] = target: T1, Calf intestinal alkaline phosphatase (CIP) (UniProt P19111 P19111:20-506); assay: streptavidin plate chemiluminescence assay, SHMCK+ buffer pH 7.35, 1 mM CaCl2, 1 mM MgCl2, 37 C; details: tags: Boehringer Mannheim (Indianapolis, Ind.), 10 mg/ml; chain copies: 2
Procedure: The affinity of the initial random library and round 8 affinity enriched pool of Example 1 was performed by a plate-based assay using RNA-transcripts biotinylated on the 5′-terminus. Briefly, opaque white 96-well Lumino plates were coated with streptavidin (10 to 20 μg/well). Biotinylated RNA obtained either from the round 8 pool or the random library were added separately to individual wells of a 96-well microtiter plate (approximately 30 fMols RNA per well). After incubating for 1 hour at room temperature, wells were washed three times with […] of SHMCK+buffer. Varying concentrations of CIP, in SHMCK+buffer, were added to the wells and allowed to incubate for 1 hour at 37° C. Wells were washed four times with 200 μl SHMCK+buffer followed by the addition of a 100 μl solution consisting of 0.1 M diethanolamine pH 10, 10% volume/volume Sapphire enhancer solution (Tropix Inc., Bedford, Mass.), […] CSPD (Tropix, Inc.), 1 mM MgCl₂, and 0.02% sodium azide. After a 30 minute incubation, chemiluminescence was measured using a Berthold (Nashua, N.H.) LB 96P luminometer. Luminescence levels were integrated over one second and data were fit to a sigmoidal dose-response curve (variable slope), Y=Bottom+[(Top−Bottom)/1+10^{(Log EC50-X)(Hillslope)}] using GraphPad Prism version 2.01 (GraphPad Software; San Diego, Calif.). […]

[2] = target: T1, Calf intestinal alkaline phosphatase …; assay: streptavidin plate chemiluminescence assay, SHMCK+ buffer, 37 C; details: tags: Boehringer Mannheim (Indianapolis, Ind.), 10 mg/ml; chain copies: 2
Procedure: The affinity of the initial random library and round 8 affinity enriched pool of Example 1 was performed by a plate-based assay using RNA-transcripts biotinylated on the 5′-terminus. Briefly, opaque white 96-well Lumino plates were coated with streptavidin (10 to 20 μg/well). Biotinylated RNA obtained either from the round 8 pool or the random library were added separately to individual wells of a 96-well microtiter plate (approximately 30 fMols RNA per well). After incubating for 1 hour at room temperature, wells were washed three times with […] of SHMCK+buffer. Varying concentrations of CIP, in SHMCK+buffer, were added to the wells and allowed to incubate for 1 hour at 37° C. Wells were washed four times with 200 μl SHMCK+buffer followed by the addition of a 100 μl solution consisting of 0.1 M diethanolamine pH 10, 10% volume/volume Sapphire enhancer solution (Tropix Inc., Bedford, Mass.), […] CSPD (Tropix, Inc.), 1 mM MgCl₂, and 0.02% sodium azide. After a 30 minute incubation, chemiluminescence was measured using a Berthold (Nashua, N.H.) LB 96P luminometer. Luminescence levels were integrated over one second and data were fit to a sigmoidal dose-response curve (variable slope), Y=Bottom+[(Top−Bottom)/1+10^{(Log EC50-X)(Hillslope)}] using GraphPad Prism version 2.01 (GraphPad Software; San Diego, Calif.). Each replicate was considered individually and convergence was obtained when two consecutive iterations varied the sum of squares (relative distance of the points from the curve, 1/Y²) by less than 0.01%.

T1 sequence (P19111 20-506, one chain of several): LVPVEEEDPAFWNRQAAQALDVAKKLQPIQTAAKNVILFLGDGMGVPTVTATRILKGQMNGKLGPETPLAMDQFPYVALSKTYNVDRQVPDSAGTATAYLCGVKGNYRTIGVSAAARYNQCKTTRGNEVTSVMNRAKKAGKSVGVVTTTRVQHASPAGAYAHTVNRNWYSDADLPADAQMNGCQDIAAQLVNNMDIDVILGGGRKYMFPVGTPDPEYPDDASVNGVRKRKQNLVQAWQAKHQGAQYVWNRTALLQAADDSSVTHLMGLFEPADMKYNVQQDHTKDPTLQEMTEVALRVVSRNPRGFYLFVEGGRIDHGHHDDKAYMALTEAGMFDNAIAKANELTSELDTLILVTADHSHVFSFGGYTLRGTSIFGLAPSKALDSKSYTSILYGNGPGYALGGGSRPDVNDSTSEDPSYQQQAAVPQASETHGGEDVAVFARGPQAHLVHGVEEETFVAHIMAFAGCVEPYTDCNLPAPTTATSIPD

B1: DD-172-2-4 (group B) (ssRNA)
RNA: GGGAGACAAGAAUAAACGCUCAACGCCAGGCCCUUAUCAAGCGCGGAACGCACGACCCGUCUUUCGACAGGAGGCUCACAACAGGC
modifications: all pyrimidines 2'-F
Work on B1 yielded a Kd [1] of 0.13 nM.

B2: DD-172-2-20 (group B) (ssRNA)
RNA: B1 RNA with C53U
modifications: all pyrimidines 2'-F
B2 showed a Kd [2] of 0.26 nM.

B3: DD-172-2-9 (group A) (ssRNA)
RNA: GGGAGACAAGAAUAAACGCUCAACACAAAACAAAAUAACCUUAGCCUCGGUGCUCUACGCAAUUCGACAGGAGGCUCACAACAGGC
modifications: all pyrimidines 2'-F
B3 showed a Kd [2] of 7.8 nM.

B4: DD-172-2-17 (group A) (ssRNA)
RNA: GGGAGACAAGAAUAACGCUCAAACACAAAACAAAAUAACUUGGCCUCGGUGCUCUACGCAAUUCGACAGGAGGCUCACAACAGGC
modifications: all pyrimidines 2'-F
B4 showed a Kd [2] of 7.2 nM.
